The data set “native gel or EMSA” deals with the molecule itself. Kind of data set: native gel or EMSA. (Mobility shift assays separate free from complexed probe on a gel.)
Data set [1] deals with T1, IFN regulatory factor 3 (IRF3) (mouse (endogenous in peritoneal macrophages, RAW264.7, L929, MEFs)), P70671.
T1 chain: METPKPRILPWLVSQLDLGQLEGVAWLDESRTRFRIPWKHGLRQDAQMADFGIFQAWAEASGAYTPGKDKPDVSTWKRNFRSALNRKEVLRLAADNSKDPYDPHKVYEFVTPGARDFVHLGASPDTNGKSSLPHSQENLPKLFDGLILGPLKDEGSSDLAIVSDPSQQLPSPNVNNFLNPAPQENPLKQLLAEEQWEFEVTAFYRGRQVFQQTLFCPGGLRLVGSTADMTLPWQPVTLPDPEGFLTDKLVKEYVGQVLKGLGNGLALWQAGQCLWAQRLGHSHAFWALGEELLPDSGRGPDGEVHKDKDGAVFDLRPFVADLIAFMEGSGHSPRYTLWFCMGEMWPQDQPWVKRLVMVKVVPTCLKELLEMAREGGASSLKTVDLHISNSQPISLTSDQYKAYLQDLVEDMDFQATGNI
Kind of data set: native gel or EMSA. Conditions: remark: other sources report otherwise.

The record followed here is paper PMC7691508 (Nature Communications, 2020).

What is called stoichiometry N is a count of units in the complex or per binding partner.

B1: stimulator of interferon genes (STING) (natural protein)
chain: MPYSNLHPAIPRPRGHRSKYVALIFLVASLMILWVAKDPPNHTLKYLALHLASHELGLLLKNLCCLAEELCHVQSRYQGSYWKAVRACLGCPIHCMAMILLSSYFYFLQNTADIYLSWMFGLLVLYKSLSMLLGLQSLTPAEVSAVCEEKKLNVAHGLAWSYYIGYLRLILPGLQARIRMFNQLHNNMLSGAGSRRLYILFPLDCGVPDNLSVVDPNIRFRDMLPQQNIDRAGIKNRVYSNSVYEILENGQPAGVCILEYATPLQTLFAMSQDAKAGFSREDRLEQAKLFCRTLEEILEDVPESRNNCRLIVYQEPTDGNSFSLSQEVLRHIRQEEKEEVTMNAPMTSVAPPPSVLSQEPRLLISGMDQPLPLRTDLI
Regarding B1, the “stoichiometry N” value in “native gel or EMSA” came to 2.

B2: IFN regulatory factor 3 (IRF3), P70671 1-419 (natural protein)
chain: T1 chain
In data set [1], B2 had a stoichiometry N of 2.
